Patent US11254722B2, “Recombinant proteins and uses thereof” (ACADEMIA SINICA, priority 2017, dated 2022)

Key:
Conditions in all cases: tested in .65M NaCL
nrgbx = test: Biacore binding to nrgbx; set-up: key: +: sufficient to bind; −: unable to bind
Method: (§1) Biacore binding was performed at David Myszka's laboratory at the University of Utah or at the Genomic Research Center at Academia Sinica. Surfaces of binding protein chimera were made via chemical immobilization on a CM4 chip using standard amine coupling chemistry. […] Excess surface carboxyl activated sites on all four flow cells was blocked using the doubly positively charged species ethylenediamine. Binding experiments (but not immobilizations) in HBS-P (10 mM HEPES pH 7.4, 150 mM NaCl, 0.05% P20), The HBS-P was supplemented with BSA at 0.2 mg/mL, or HBS-P was supplemented with 500 mM NaCl (650 mM NaCl, final concentration). Analytes were also reconstituted in the corresponding buffer. All experiments were performed at 25° C. 1/150 dilutions of phosphoric acid were used to regenerate IGFBP3-Fc surfaces and a sequence of 3 M MgCl2 followed by 5 M GuCl was used to regenerate surfaces immobilized with growth factor. Dissociation constants reported below used immobilized binding protein unless noted. Differences between binding constants may be expected between growth factor immobilization and chimera immobilization.

IGF-1 = molecular target: T1, IGF-1 (Homo sapiens, UniProt P05019); test: Biacore binding to IGF-1; set-up: key to growth factor binding, igf1: +: sufficient to bind; −: unable to bind
T1 construct: purchased R&D Sciences or SinoBiologicals
Method: as §1

PDGF AB = molecular target: T2, PDGF AB (Homo sapiens, UniProt P01127+P04085); test: Biacore binding to PDGF AB; set-up: key: +: sufficient to bind; −: unable to bind
T2 construct: purchased R&D Sciences or SinoBiologicals
Method: as §1

VEGF B = molecular target: T3, VEGF B (Homo sapiens, UniProt P49765); test: Biacore binding to VEGF B; set-up: key: +: sufficient to bind; −: unable to bind
T3 construct: purchased R&D Sciences or SinoBiologicals
T3 sequence (P49765 22-207): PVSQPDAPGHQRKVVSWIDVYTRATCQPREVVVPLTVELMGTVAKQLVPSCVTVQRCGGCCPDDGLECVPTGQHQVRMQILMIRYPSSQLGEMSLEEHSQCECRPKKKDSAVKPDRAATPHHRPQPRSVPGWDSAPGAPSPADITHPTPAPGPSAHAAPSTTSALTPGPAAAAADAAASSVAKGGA
Method: as §1

bFGF = molecular target: T4, bFGF (Homo sapiens, UniProt P09038); test: Biacore binding to bFGF; set-up: key: +: sufficient to bind; −: unable to bind
T4 construct: purchased R&D Sciences or SinoBiologicals
Method: as §1

IGF-2 = molecular target: T5, IGF-2 (Homo sapiens, UniProt P01344); test: Biacore binding to IGF-2; set-up: key: +: sufficient to bind; −: unable to bind
T5 construct: purchased R&D Sciences or SinoBiologicals
Method: as §1

T5 sequence (P01344 25-91): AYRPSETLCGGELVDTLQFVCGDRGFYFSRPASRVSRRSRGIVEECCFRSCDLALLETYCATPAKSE
T2 sequence (P01127 82-190 limits assumed, other chains not shown): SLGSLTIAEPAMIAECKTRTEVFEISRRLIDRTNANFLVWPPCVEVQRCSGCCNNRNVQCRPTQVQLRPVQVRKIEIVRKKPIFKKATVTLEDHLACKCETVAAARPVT
T4 sequence (P09038 143-288): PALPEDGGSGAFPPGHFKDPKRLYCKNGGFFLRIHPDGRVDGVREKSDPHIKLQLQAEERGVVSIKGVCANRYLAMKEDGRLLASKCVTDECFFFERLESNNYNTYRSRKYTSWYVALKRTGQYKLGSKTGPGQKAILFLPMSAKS
T1 sequence (P05019 49-118 limits assumed): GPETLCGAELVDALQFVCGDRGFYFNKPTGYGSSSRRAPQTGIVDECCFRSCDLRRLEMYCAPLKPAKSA

B1: 4382: SEQ ID NO: 25; the complete link region (protein)
chain: MSEVPVARVWLVLLLLTVQVGVTAGGASSAVNASAVSRLRAYLLPAPPAPGNASESEEDRSAGSVESPSVSSTHRVSDPKFHPLHSKIIIIKKGHAKDSQRYKVDYESQSTDTQNFSSESKREVECPPCPAPPVAGPSVFLFPPKPKDQLMISRTPEVTCVVVDVSHEDPEVKFNWYVDGVEVHNAKTKPREEQYNSTYRVVSVLTVLHQDWLNGKEYKCKVSNKGLPSSIEKTISKAKGQPREPQVYTLPPSREEMTKNQVSLTCLVKGFYPSDIAVEWESNGQPENNYKTTPPVLDSDGSFFLYSKLTVDKSRWQQGNVFSCSVMHEGLHNHYTQKSLSLSPGK
- growth factor binding, nrgbx (nrgbx): −
- growth factor binding, igf1 (IGF-1): −
- growth factor binding, PDGF AB (PDGF AB): −
- growth factor binding, VEGF B (VEGF B): −
- growth factor binding, bFGF (bFGF): −
- growth factor binding, igf2 (IGF-2): −

B2: 4141: SEQ ID NO: 23; a fragment comprising the N-terminus and the linker region from h3t33 (protein)
chain: MSEVPVARVWLVLLLLTVQVGVTAGGASSAGLGPVVRCEPCDARALAQCAPPPAVCAELVREPGCGCCLTCALSEGQPCGIYTERCGSGLRCQPSPDEARPLQALLDGRGLCVNASAVSKGHAKDSQRYKVDYESQSTDTQNFSSESKRETEYVECPPCPAPPVAGPSVFLFPPKPKDQLMISRTPEVTCVVVDVSHEDPEVKFNWYVDGVEVHNAKTKPREEQYNSTYRVVSVLTVLHQDWLNGKEYKCKVSNKGLPSSIEKTISKAKGQPREPQVYTLPPSREEMTKNQVSLTCLVKGFYPSDIAVEWESNGQPENNYKTTPPVLDSDGSFFLYSKLTVDKSRWQQGNVFSCSVMHEGLHNHYTQKSLSLSPGK
- growth factor binding, nrgbx (nrgbx): +
- growth factor binding, igf1 (IGF-1): +
- growth factor binding, PDGF AB (PDGF AB): +
- growth factor binding, VEGF B (VEGF B): +
- growth factor binding, bFGF (bFGF): +
- growth factor binding, igf2 (IGF-2): +

B3: 4142: SEQ ID NO: 24; the N-terminus only (protein)
chain: MSEVPVARVWLVLLLLTVQVGVTAGGASSAGLGPVVRCEPCDARALAQCAPPPAVCAELVREPGCGCCLTCALSEGQPCGIYTERCGSGLRCQPSPDEARPLQALLDGRGLCVNASAVSVECPPCPAPPVAGPSVFLFPPKPKDQLMISRTPEVTCVVVDVSHEDPEVKFNWYVDGVEVHNAKTKPREEQYNSTYRVVSVLTVLHQDWLNGKEYKCKVSNKGLPSSIEKTISKAKGQPREPQVYTLPPSREEMTKNQVSLTCLVKGFYPSDIAVEWESNGQPENNYKTTPPVLDSDGSFFLYSKLTVDKSRWQQGNVFSCSVMHEGLHNHYTQKSLSLSPGK
- growth factor binding, nrgbx (nrgbx): −
- growth factor binding, igf1 (IGF-1): +
- growth factor binding, PDGF AB (PDGF AB): −
- growth factor binding, VEGF B (VEGF B): −
- growth factor binding, bFGF (bFGF): −
- growth factor binding, igf2 (IGF-2): +
